According to the Human Domainome abundance scans (Beltran et al. 2025):
± gives the uncertainty stated by the source.

B1: E3 ubiquitin-protein ligase TRIM36, residues 208 to 252; numbered along this chain, Q9NQ86 (parent)
chain: KILMCPEHETERINMYCELCRRPVCHLCKLGGNHANHRVTTMSSA

Variants of: B1
Assay: abundance fitness (aPCA) (normalised: wild type 0, dead -1); higher = more abundant; growth selection in yeast, the domain comes from the species named
Conditions: Homo sapiens

Variant | abundance fitness
C20M | -0.534 ± 0.084
C20I | -1.01 ± 0.11
C20H | -0.665 ± 0.13
C20F | -1.37 ± 0.14
C20G | -0.595 ± 0.054
K29M | -0.057 ± 0.057
K29R | -0.025 ± 0.051
K29N | 0.072 ± 0.084
K29W | -0.12 ± 0.07
K29Y | -0.012 ± 0.063
G32Q | -0.036 ± 0.061
G32W | -0.297 ± 0.058
G32A | 0.028 ± 0.053
H37L | -0.26 ± 0.051
H37G | -0.127 ± 0.046
H37P | -0.194 ± 0.058
H37Q | -0.119 ± 0.065
H37E | -0.038 ± 0.054
H37F | -0.486 ± 0.092
H37K | -0.176 ± 0.068
H37I | -0.529 ± 0.16
R38Y | -0.005 ± 0.093
R38A | 0.021 ± 0.049
R38D | 0.05 ± 0.069

Variant | abundance fitness
R38M | 0.008 ± 0.055
I13G | 0.145 ± 0.12
I13R | -0.143 ± 0.12
I13L | 0.032 ± 0.1
H34D | -0.326 ± 0.066
H34V | -0.444 ± 0.056
H34P | -0.391 ± 0.078
H34T | -0.338 ± 0.063
H34R | -0.541 ± 0.048
A45V | -0.091 ± 0.076
A45T | -0.143 ± 0.084
L19W | -0.088 ± 0.056
L19S | 0.069 ± 0.058
L19R | 0.076 ± 0.049
L19V | 0.039 ± 0.061
L19I | 0.04 ± 0.08
L19P | 0.029 ± 0.063
E11C | -0.773 ± 0.1
E11A | -0.376 ± 0.074
E11K | -0.259 ± 0.11
E11P | -0.854 ± 0.42
E11G | -0.047 ± 0.12
N33G | 0.028 ± 0.046
N33M | -0.015 ± 0.064

Variant | abundance fitness
N33K | 0.016 ± 0.061
N33E | -0.003 ± 0.072
N33I | -0.064 ± 0.072
L27N | 0.005 ± 0.12
L27G | -0.141 ± 0.043
L27F | -0.182 ± 0.083
S43M | -0.13 ± 0.074
S43K | -0.145 ± 0.065
S43D | -0.063 ± 0.093
C25M | -0.618 ± 0.1
C25P | -0.723 ± 0.07
C25K | -0.572 ± 0.087
C25A | -0.603 ± 0.05
C25S | -0.665 ± 0.054
C25W | -1.1 ± 0.091
C25F | -0.752 ± 0.23
C25R | -0.729 ± 0.054
A35Y | -0.137 ± 0.09
A35L | -0.091 ± 0.056
A35Q | -0.05 ± 0.07
V24D | -0.453 ± 0.094
V24N | -0.49 ± 0.09
V24W | -0.351 ± 0.056
V24L | -0.129 ± 0.058

Variant | abundance fitness
V24P | -0.501 ± 0.064
V24R | -0.44 ± 0.055
P6C | -0.235 ± 0.069
P6Y | -0.228 ± 0.067
P6N | -0.139 ± 0.1
P6E | -0.016 ± 0.052
P6A | -0.072 ± 0.062
P6G | -0.14 ± 0.046
Y16G | -0.478 ± 0.11
Y16K | -0.16 ± 0.1
C28R | -0.637 ± 0.052
C28G | -0.608 ± 0.05
C28V | -0.525 ± 0.062
C28N | -0.546 ± 0.41
I2E | -0.042 ± 0.049
I2F | -0.001 ± 0.12
I2H | -0.139 ± 0.06
I2M | -0.068 ± 0.062
I2W | -0.405 ± 0.062
T10G | -0.071 ± 0.045
T10R | -0.039 ± 0.049
T10M | -0.038 ± 0.069
T10V | -0.161 ± 0.059
T10Q | 0.021 ± 0.067

Variant | abundance fitness
C17R | -0.909 ± 0.086
C17P | -0.705 ± 0.12
C17A | -1.01 ± 0.17
T41L | -0.149 ± 0.049
T41P | -0.059 ± 0.062
T41F | -0.189 ± 0.084
T41N | -0.289 ± 0.16
T41V | -0.084 ± 0.046
T41C | -0.112 ± 0.066
T41W | -0.249 ± 0.053
T41S | -0.043 ± 0.056
P23I | -0.373 ± 0.066
P23Q | -0.1 ± 0.071
P23C | -0.2 ± 0.092
P23D | 0.037 ± 0.076
M42H | -0.524 ± 0.28
M42P | 0.087 ± 0.068
M42K | 0.079 ± 0.06
M42V | 0.001 ± 0.046
M42Y | -0.134 ± 0.1
K1V | -0.243 ± 0.078
K1N | -0.101 ± 0.11
K1Q | -0.236 ± 0.081
K1T | -0.157 ± 0.065

Variant | abundance fitness
K1I | -0.291 ± 0.14
K1C | -0.573 ± 0.17
E7S | -0.103 ± 0.056
E7F | -0.129 ± 0.071
E7N | -0.169 ± 0.099
E7A | -0.064 ± 0.056
E7P | -0.783 ± 0.086
E9H | -0.069 ± 0.099
E9P | 0.075 ± 0.061
E9G | 0.008 ± 0.045
E9D | 0.008 ± 0.075
E9Y | -0.076 ± 0.12
S44T | -0.028 ± 0.057
S44D | 0.069 ± 0.063
S44R | -0.1 ± 0.05
S44L | -0.179 ± 0.054
S44A | 0.031 ± 0.048
S44V | -0.047 ± 0.052
L30M | -0.041 ± 0.082
L30C | -0.023 ± 0.063
L30R | 0.045 ± 0.049
L30I | -0.05 ± 0.11
L30Q | 0.067 ± 0.056
L30G | 0.073 ± 0.051

Variant | abundance fitness
M4F | 0.188 ± 0.12
M4P | -0.288 ± 0.056
M4N | -0.101 ± 0.13
M4D | -0.189 ± 0.058
M4Q | -0.181 ± 0.059
M4K | -0.054 ± 0.057
M4R | -0.165 ± 0.044
R21S | -0.002 ± 0.051
R21P | -0.387 ± 0.088
R21Q | -0.002 ± 0.11
L3C | -0.055 ± 0.057
L3G | -0.016 ± 0.045
L3K | 0.006 ± 0.058
L3I | 0.061 ± 0.079
L3Y | -0.008 ± 0.092
L3W | -0.254 ± 0.053
L3M | 0.092 ± 0.056
T40N | 0.141 ± 0.087
V39M | 0.028 ± 0.072
V39I | -0.149 ± 0.24
V39E | 0.037 ± 0.053
N36M | -0.109 ± 0.068
N36S | -0.052 ± 0.051
